We go through 1 molecule from patent US20200173986A1.

The assay addresses endogenous SNAP25 in total cell lysate. The experiment in a line: sandwich ELISA with total cell lysate, fusion supernatant. (In general: In an ELISA, binding on a coated surface is turned into a signal by an enzyme label.)

endogenous SNAP25 in total cell lysate, sequence (P60879 whole entry, the tested form may be a part): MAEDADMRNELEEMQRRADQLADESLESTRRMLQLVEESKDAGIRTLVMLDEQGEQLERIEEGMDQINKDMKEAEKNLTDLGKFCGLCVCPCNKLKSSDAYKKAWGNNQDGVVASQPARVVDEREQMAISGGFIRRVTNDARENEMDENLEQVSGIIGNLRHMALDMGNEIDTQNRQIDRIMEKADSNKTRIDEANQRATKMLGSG

B1: B4 IgG (antibody, V domains shown)
VH: EVKLVESGGGLVKPGGSLKLSCAASGFTFSNYGMSWVRQTPEKRLEWVATISSGGSYTYYPDSVKGRFTISRDNAKNTLYLQMSSLRSEDTAMYYCARHEGGGNPYFDYWGQGTTLTVSS
VL: DVLMTQTPLSLPVSLGDQASISCRSSQSLVHSNGNTYLHWYLQKPGQSPKLLIYKVSNRFSGVPDRFSGSGSGTDFTLKISRVEAEDLGVYFCSQNTLVPWTFGGGTKLEIK
Molecule B1 showed an ELISA signal (A450) of 0.1.
